Eight molecules from patent US5639868, “High-affinity RNA ligands for basic fibroblast growth factor” (NeXstar Pharmaceuticals, Inc.) can be followed below.

The target of series [1] is T1, basic fibroblast growth factor (bFGF, FGF-2) (UniProt P09038 P09038:135-288). As to the kind of experiment: filter; biphasic, Kd1 (mole fraction 0.5); Kd2 = 270 nM. The conditions noted are these: tags: Bachem California; 18 kDa, 154 amino acids. The method, then:
(§1) This affinity screening allowed identification of those ligands with highest affinity for bFGF. Binding of a group of these ligands was analyzed over a range of bFGF concentrations (FIG. 8) and their dissociation constants (Kd's) were determined as described (Jellinek et al. (1993) Proc. Natl. Acad. Sci. U.S.A. 90:11227–11231) (Table IX). RNA concentrations were determined from their absorbance reading at […] (and were typically <100 pM). Binding reactions were done at 37° C. in phosphate buffered saline containing 0.01% human serum albumin and 1 mM DTT.
(§2) The minimal sequence information required for high-affinity binding to bFGF was examined for several of the 2'-NH_2 modified ligands by deletion analyses as described (Tuerk et al. (1990) J. Mol. Biol. 213:749–761).

Series [2] deals with T1, basic fibroblast growth factor (bFGF, …). As to the kind of experiment: inhibition; 125I-bFGF binding to high-affinity receptor, BHK cells, 4 C. The settings on record: tags: Bachem California; 18 kDa, 154 amino acids; label: 125I. On the procedure: Receptor Binding Studies. bFGF was labeled with ^125I by the Iodo-Gen (Pierce) procedure as described by Moscatelli (1987) supra. […] The amount of 125I-bFGF bound to the low- and the high-affinity receptor sites was determined as described by Moscatelli (1987) supra.

Series [3] shares this target. As to the kind of experiment: filter; monophasic. The conditions noted are these: tags: Bachem California; 18 kDa, 154 amino acids. The method, then:
as §1, §2

The target is the same in series [4]. As to the kind of experiment: filter; biphasic, Kd1 (mole fraction 0.5); Kd2 = 180 nM. The settings on record: tags: Bachem California; 18 kDa, 154 amino acids. The method, then:
as §1, §2

Series [5] has the same target. As to the kind of experiment: filter; binding curve in figure only; PBS, 0.01% HSA, 1 mM DTT, 37 C. The conditions noted are these: tags: Bachem California; 18 kDa, 154 amino acids. The method, then: Binding curves for modified RNA ligands 21A, 38B and random RNAs were determined (FIG. 8). RNA concentrations were determined from their absorbance reading at 260 nm and were typically less than 100 pM. Binding reactions were conducted at 37° C. in phosphate buffered saline containing 0.01% human serum albumin and 1 mM DTT. Heparin competitively displaced RNA ligands from both sequence families (FIG. 3), although higher concentrations of heparin were required to displace members of family 2 from bFGF.
as §1

T1 sequence (P09038 135-288, one chain of several): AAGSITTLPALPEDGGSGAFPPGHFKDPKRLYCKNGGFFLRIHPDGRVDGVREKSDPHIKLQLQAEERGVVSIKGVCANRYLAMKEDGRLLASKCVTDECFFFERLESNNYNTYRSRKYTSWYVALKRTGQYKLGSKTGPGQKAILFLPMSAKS

Molecule GGUGUGUGGAAGACAGCGGGUGGUUC (ssRNA, 2'-NH2 at all C and U) [2'-NH2 21A-t] yielded a Kd in series [1] of 0.0001 µM.

B1: 7A (ssRNA)
RNA: GGGAGCUCAGAAUAAACGCUCAAUCGGCGAGCUAACCAAGACACUCGCUGCACUUCGACAUGAGGCCCGGAUCCGGC
Regarding B1, the IC50 in series [2] was roughly 1 µM.
GGAGGACGAUGCGGAACGGGAGGUACGAGAGCGGGAGC (ssRNA, 2'-NH2 at all C and U) [2'-NH2 34B-t] registered a Kd in series [3] of 0.003 µM.

B2: 26A (ssRNA)
RNA: GGGAGCUCAGAAUAAACGCUCAACGUCAGAAGGCAACGUAUAGGCAAGCACACUUCGACAUGAGGCCCGGAUCCGGC
In series [2], B2 displayed an IC50 of roughly 1 µM.

B3: 5A (ssRNA)
RNA: GGGAGCUCAGAAUAAACGCUCAAAUCUCCUCCCGUCGAAGCUAACCUGGCCACUUCGACAUGAGGCCCGGAUCCGGC
In the case of B3, the IC50 in series [2] is roughly 1 µM.
As for GGACGGCGUGGUCCGAGGGUGGCGAGU (ssRNA, 2'-NH2 at all C and U) [2'-NH2 58A-t], the affinity in series [4], expressed as Kd, was 0.0018 µM.

B4: 12A (ssRNA)
RNA: GGGAGCUCAGAAUAAACGCUCAAGGGGCAACGCUACAGACAAGUGCACCCAACUUCGACAUGAGGCCCGGAUCCGGC
On to B4, for which, in series [2], the IC50 was greater than 1 µM.

B5: 2'-NH2 38B (ssRNA)
RNA: GGGAGGACGAUGCGGGCUGCGGUGCGCAUGUGUGGAAGACAGAGGGAGGUUAGAAUCGUGCCGCCAGACGACUCGCCCGA
modifications: 2'-NH2 at all C and U
B5: the binding result in series [5] is “binds”.

What is called Kd is a measure of binding affinity in units of concentration. One may read the IC50 as the concentration at which inhibition is half-maximal. Read a low IC50 as higher potency.
